The target in this test is purified human platelet αIIbβ3 integrin (human, UniProt P05106 27-788). Nature of the test: ELISA; competition: αIIbβ3 (1 µg) immobilised on the plate, Fg 1 µM with apoA-IV 0–10 µM; TBS, 0.05% Tween-20, 1 mM each MgCl2, MnCl2, CaCl2; 1 h at 37 °C; anti-fibrinogen IgG and anti-mouse IgG-HRP. Conditions: both partners purified. (In general: ELISA stands for enzyme-linked immunosorbent assay.)

B1: recombinant human apoA-IV (ligand, UniProt P06727 21-396, looked up)
chain: EVSADQVATVMWDYFSQLSNNAKEAVEHLQKSELTQQLNALFQDKLGEVNTYAGDLQKKLVPFATELHERLAKDSEKLKEEIGKELEELRARLLPHANEVSQKIGDNLRELQQRLEPYADQLRTQVSTQAEQLRRQLTPYAQRMERVLRENADSLQASLRPHADELKAKIDQNVEELKGRLTPYADEFKVKIDQTVEELRRSLAPYAQDTQEKLNHQLEGLTFQMKKNAEELKARISASAEELRQRLAPLAEDVRGNLRGNTEGLQKSLAELGGHLDQQVEEFRRRVEPYGENFNKALVQQMEQLRQKLGPHAGDVEGHLSFLEKDLRDKVNSFFSTFKEKESQDKTLSLPELEQQQEQQQEQQQEQVQMLAPLES
notes: apolipoprotein A-IV, human; also called rH-ApoA-IV; rH-apoA-IV; source: E. coli, purified (His GraviTrap IMAC, tag cut with TEV protease); not shown: His6, N-terminal, cleaved
B1 had an IC50 of 1320 nM.

By IC50 is commonly meant the concentration that inhibits the measured activity by half. A lower IC50 goes with greater potency.
